Assay results from PMC5378476, “Mechanism of ribosome rescue by ArfA and RF2” (eLife, 2017).

Molecular target: T1, release factor RF2 (E. coli K12, UniProt P07012 1-365)
T1 construct: Peptide chain release factor RF2, E. coli K12 strain; SPF motif at 205-207, GGQ motif at 250-252, switch loop aa 315-323; source: purified as described (Korostelev et al., 2008; Laurberg et al., 2008)
T1 sequence: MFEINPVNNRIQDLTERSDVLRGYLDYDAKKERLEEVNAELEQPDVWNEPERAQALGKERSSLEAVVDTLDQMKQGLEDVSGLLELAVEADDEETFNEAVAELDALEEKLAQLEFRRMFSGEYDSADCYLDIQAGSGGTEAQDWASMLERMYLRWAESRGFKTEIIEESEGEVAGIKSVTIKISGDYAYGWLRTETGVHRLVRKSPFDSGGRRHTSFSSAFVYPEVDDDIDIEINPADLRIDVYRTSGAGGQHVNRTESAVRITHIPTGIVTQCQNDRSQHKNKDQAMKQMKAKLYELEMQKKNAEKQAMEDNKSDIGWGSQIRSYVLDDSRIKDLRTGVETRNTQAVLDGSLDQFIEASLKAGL
Assay: cryo-EM structure; 70S•mRNA•tRNAfMet•ArfA•RF2 complex reconstituted in vitro from 30S and 50S subunits, mRNA truncated after the P-site AUG; 20 mM Tris-HCl pH 7.0, 100 mM NH4Cl, 20 mM MgCl2, 0.5 mM EDTA, 6 mM βME; on grids ~0.45 µM 70S, 10 µM ArfA, 10 µM RF2; two classes (Structure I, compact RF2; Structure II, extended RF2) from one dataset
Settings: both partners purified

binding result: binds
B1: ArfA (alternative rescue factor A) (natural protein, E. coli, UniProt P36675 1-60, looked up)
chain: MSRYQHTKGQIKDNAIEALLHDPLFRQRVEKNKKGKGSYMRKGKHGNRGNWEASGKKVNH
notes: ArfA, E. coli, gene from the ASKA Clone(-) library; the forward primer starts at the first ATG of the gene after the His6 codons, the reverse primer ends at the codon of residue 60; The natural protein is longer than 60 residues; the construct is cut short at the C-terminus; No density for the His6 tag in the maps; source: E. coli BLR/DE3, pET24b+, purified (Ni-NTA, ion exchange, size exclusion); …
